Measured values taken from the DeepSol protein solubility set.

test: soluble on expression in E. coli; label from the status in PepcDB or PDB records

Sequence	soluble on expression in E. coli
MAVSAYFHIPFCAHICHYCDFNKVFAAGQPIDDYLRAMDKEMAWTAAEFGSQLKTLFIGGGTPTVLEPAQLGCLLASIHRHFQFDPQTAEFTVEANPDGLTKEKLAILRDAGVNRLSLGVQTFDDQLLQTIGRTHRRGDVIRAVALAREVGFQNISIDVMYGLPGQTLEQFTADLEAAFSLHVPHLSAYSLILEPRTIFYNEWRKGRLRLPGEEMEAEMYEAAMEQMAAAGYRQYEISNYALPGFESRHNLTYWNNEEYYGIGAGAHSYIDGVRRANIGPIRHYISAIERGQWPHRDVRRLTTREQMEEEMFLGLRKTEGVSKACFRQKFGRDLHDIFGAAIRREIENGRLEETETHIRLTKRGKLLGNEVFAAFLGEM	not soluble
MAWPDLDPPRLAERPLSLQEALFVLEAPPEALPALAEAAIRVKEYFFGRRLKLVRLLNVKSGFCPEDCAYCAQSARSQAAIARYPLLSLEEILERAEEAQRLSARRFCLVAALRGPTPKVLERLGEAAQAIKARFPLELCASLGLLEEGMAEALKAAGFDYYNHNLNTVPSLYPRIATTHTYQDRLWTLKRAREAGLKLCSGVILGMGEGPKEVYEMALALRELGVESLPVNFLLPIPGTPLGDGRTVAGLTPERALKALILFRLLNPKAELRASAGRERYLGPYEPLAFRMVNSIFLQGYLTQPGSPWERDRALWESLDLDVEEGACG	soluble
MAYDGLFTKKMVESLQFLTTGRVHKINQPDNDTILMVVRQNRQNHQLLLSIHPNFSRLQLTTKKYDNPFNPPMFARVFRKHLEGGIIESIKQIGNDRRIEIDIKSKDEIGDTIYRTVILEIMGKHSNLILVDENRKIIEGFKHLTPNTNHYRTVMPGFNYEAPPTQHKINPYDITGAEVLKYIDFNAGNIAKQLLNQFEGFSPLITNEIVSRRQFMTSSTLPEAFDEVMAETKLPPTPIFHKNHETGKEDFYFIKLNQFNDDTVTYDSLNDLLDRFYDARGERERVKQRANDLVRFVQQQLHKYQNKLAKLIEEYEQSKNKDTEQLYGELITANIYRIKQGDKEVTALNYYTNEEVVIPLNPTKSPSANAQYYYKQYNRMKTRERELQHQIQLTKDNIDYFSTIEQQLHHISVHDIDEIRDELAEQGFMKQRKNQTKKKKAQ	not soluble
MAYFMTDVTKENRQDECRFSPNKEATEEDLLRIGVECTKVNFDDEHVQEDLDRLIKKYDMNFHDEVHICRATMPNFDEKLDIFFEEHLHDDAELRVIKHGVGFFDVRTKDEAWIRIPVRRGDFVFLPAGIYHRFTTDPSEDVVALRLFRNNPKWTAFNRKADGDEQRVRQQYLNDISA	soluble
MAYFTAKRASSMGASTVPSGNDHLLEALTLCDCILSRYKRCGVQLNDAEAAAFANLQQRISSISGHAADAACPAGATRKQSQELGLHEYAQLAQRCLIFQNPLAQIVATINEEFSKLVSCSVRTHYANTNDAVLCDPVHDTVATIDTSTPIGRCAKTKTTVTISDTVYIPLCYNSHVVGCLEVESTAIDTSTPFFGYLLQVAALTLQNATSIDTLRWETRKAEAMVGMATRLARDTLEESVLVQSIINTAKTLTESDRCSIFLVKADGSLEAHFEDGNVVVLPAGTGIAGHVAESGAVVNIPNAYEDDRFHRSVDKVTGYHTRTILCLPIAFEGTIVAVAQLINKLDMVTQSGQRLPRVFGRRDEELFETFSMFAAASLRNCRINETLLKEKKKSDAILDVVALLSNTDIRDVDSIVRHVLHGAKKLLNADRSSMFLLDKERNELYSKMADSANEIRFPCGQGIAGTVAESGVGENIMDAYADSRFNSAVDRQLGYRTQSILCEPITLNGEVLAVVQLVNKLGDDGSVTCFTPTDQETFKVFSLFAGISINNSHLLEFAVNAGREAMTLNLQRNSITAQRAPKSVKVIAVTPEEREAVMSIDFGGAYDFTSPGFNLFEVREKYSEPMDAAAGVVYNLLWNSGLPEKFGCREQTLLNFILQCRRRYRRVPYHNFYHVVDVCQTLHTYLYTGKASELLTELECYVLLVTALVHDLDHMGVNNSFYLKTDSPLGILSSASGNNSVLEVHHCSLAIEILSDPAADVFEGLSGQDVAYAYRALIDCVLATDMARHGDLSRVFDDMAKAGYDSNDQESRRLVMETLIKAGDVSNVTKPFETSRMWAMAVTEEFYRQGDMEKEKGVEVLPMFDRSKNNELARGQIGFIDFVAGKFFRDIVGNLFHGMQWCVDTVNSNRAKWQEILDGRRDSIRPSIV	not soluble
MAYKFLSEDWIKAYAEEWNKNEKLMNDLKNFSASIKYYVEGKENDAVELIIEKGKAVSAGKADPNKRYDFELWASLENWKKLATGEMGPRAAMLTKRLKFKGSMITAMKYMGAFEESLKMMGRVPTVWDV	not soluble
MAYVPTLIANNVLNRAFAEKYRISPMKLQKILYFAAAEYQKNTGKSLFSERFETWQYGPVLRSVYSEFRPFSRDFITRFAKDAENQSHMINESADPALQRVLDTVWSATKGHSAVDLSRITHMENSAWDKSFQNEQPFLSSDHIAADDTYRRELGLTTA	not soluble
MCANIGVDPLASNKGFWAELLGIGDFYYELGVQIIEVCMLTRSHNGGLISLQELCNHLRQRRKKDREAVTEDDCLRAISKLKVLGSGFEVITIGKKKLVRSVPTELNKDHNQILELAQGQGFVIVEEVQRRLSWTSGRVIDALETLLEEGLAMIDNGHKDGKCRYWFPCVSSVYSSIGSDT	soluble
MCELLGMSANVPTDICFSFTGLVQRGGGTGPHKDGWGITFYEGKGCRTFKDPQPSFNSPIAKLVQDYPIKSCSVVAHIRQANRGEVALENTHPFTRELWGRNWTYAHNGQLTGYKSLETGNFRPVGETDSEKAFCWLLHKLTQRYPRTPGNMAAVFKYIASLADELRAKGVFNMLLSDGRYVMAYCSTNLHWITRRAPFGVATLLDQDVEIDFSSQTTPNDVVTVIATQPLTGNETWQKIMPGEWRLFCLGERVV	not soluble
MCGQKFELKIDNVRFVGHPTLLQHALGQISKTDPSPKREAPTMILFNVVFALRANADPSVINCLHNLSRRIATVLQHEERRCQYLTREAKLILALQDEVSAMADGNEGPQSPFHHILPKCKLARDLKEAYDR	not soluble
MCILFIALNAHPQYPLIICANRDEFHHRPTAPAQFWPPERNMLAGKDLQAGGTWFGVNTQGQLAGVTNLRVAQKNQEPMRSRGELVIQALNSGSLICPNWLVEHAQDYQPFNLVFGQGTNLYCFNSIRRETVKLTQGFHAISNGAMDDVWPKMAKGQRSLEALIQQSAQLEVESLIKLMQDDSQPQDNELPDTGVGLEWKRRLAAIYIRHPDYGTRSTSILLQNAQGEIQFTEVRYDGKGRRLGQQDFHFTLPPQLPPEPDCLVVFLEHHHHHH	not soluble
MCIMCELKNFRRNITCFEGYDENSFIGKWYDDGVWDDEEYWKLENDLIEVRKKYPYPMDIPRYVVIGIGTIIDFLMVPNWKLFEIKASPWLPDSVGINERYERLKTMLRYIFTEKDIVNVQFDYYNKK	not soluble
MCLGIPARVVEVLDGPLPMAVVDMAGEQRPCSVMYVPEVQVGQFVLLQNGYAMEVLDEKSAQESLATIAEFNLVQQVQLAPREPR	not soluble
MCLICDRIKMIKINQNKFFVKELKTGYVVLGDNQHFKGYTLFLYKEHENELYQLEPNEKLNFLEEMSLVGEAVSKAFECEKMNYELLGNGDSHLHWHLFPRISGDLGEYGYYGKGPVWWYPREKMYSTDNEPTDEELEKLKQRLNVELDRLFYEKLEHHHHHH	not soluble
MCMGIFNRISNMIKAKTNSALDEMENPVELLDQKIRDMEKSFNEGKRSSAQIFGNLKDTEKKMNEAKEESAQYDEKVRLAMSKGNEELAKKALKLKLDSDKKFESLKASYEGQRAKADVLKGKLVELEKELDKTRSYRDEAVARLNNAEASKQINEVIANVQSKSNSINIDDIERSISRKESYAAGLEELKGESLDDEFAKLEELSLDDELNKYRTQNTQEDKTSDSEVDLELEKYKNKLEHHHHHH	not soluble
MCMSATLSRPGCGACCIAPSISSPIPGMPQGKPAGSRCVQLDDDMRCRIFGHPDRPDVCSSLQPSTELCADDREQAMTWLLKLEELTLPARLEHHHHHH	not soluble
